The source of these data is publication PMC6389991.

Test [1] has as its target PfHsp70-x-S (30–412) (P. falciparum).
The target of test [2] is PfHsp70-x-C (27–679) (P. falciparum).
For test [3] the target is unchanged. The test is described as follows: pull-down; PfHsp70-x-C cross-linked to coupling resin, increasing PFA0660w-C (1.4286-28.5714 µM), without ATP; band densities on SDS-PAGE, nonlinear regression.
Test [4] addresses PfHsp70-x-S (30–412) (P. falciparum). The source holds these as a separate data set.
The target in test [5] is PfHsp70-x-C (27–679) (P. falciparum). This is another data set of the same source.
For test [6] the target is unchanged. The test is described as follows: pull-down; PfHsp70-x-C cross-linked to coupling resin, increasing PFA0660w-C (1.4286-28.5714 µM), with 1 mM ATP; band densities on SDS-PAGE, nonlinear regression.
Test [7] shares this target. The test is described as follows: BLI; Octet K2, 25 °C; His-tagged PfHsp70-x-C loaded on Ni-NTA biosensors, ATS as analyte (1.563-6.25 µM); steady-state analysis, 1:1 model.

The Kd is a measure of binding affinity in units of concentration. Low readings indicate a tighter complex, high ones a looser complex. “PFA0660w-C (81–386) (domain or fragment)” came in with a beta galactosidase refolding: recovered enzyme activity with PFA0660w-C and PfHsp70-x-S together in test [1] of 34.7%. The beta galactosidase refolding: recovered enzyme activity with PFA0660w-C and PfHsp70-x-C together in test [2] came to 66.7%. The Kd in test [3] was determined as 5.58 µM; in test [6], 0.781 µM. The substance further came in with an MDH aggregation suppression (absorbance at 360 nm, 48 °C): percent MDH aggregation with PFA0660w-C and PfHsp70-x-S together in test [4] of 18.2%. In test [5], this substance registered an MDH aggregation suppression (absorbance at 360 nm, 48 °C): percent MDH aggregation with PFA0660w-C and PfHsp70-x-C together of 10.7%.

As for “acidic terminal segment (ATS) domain of PfEMP1 (PF08_0141) (domain or fragment)”, the Kd in test [7] was 180 µM.
